Where two headings read alike, the source gives them in different places.
T1: human FLT3 on AML5 cells (human, UniProt P36888 27-993)
T1 sequence (looked up): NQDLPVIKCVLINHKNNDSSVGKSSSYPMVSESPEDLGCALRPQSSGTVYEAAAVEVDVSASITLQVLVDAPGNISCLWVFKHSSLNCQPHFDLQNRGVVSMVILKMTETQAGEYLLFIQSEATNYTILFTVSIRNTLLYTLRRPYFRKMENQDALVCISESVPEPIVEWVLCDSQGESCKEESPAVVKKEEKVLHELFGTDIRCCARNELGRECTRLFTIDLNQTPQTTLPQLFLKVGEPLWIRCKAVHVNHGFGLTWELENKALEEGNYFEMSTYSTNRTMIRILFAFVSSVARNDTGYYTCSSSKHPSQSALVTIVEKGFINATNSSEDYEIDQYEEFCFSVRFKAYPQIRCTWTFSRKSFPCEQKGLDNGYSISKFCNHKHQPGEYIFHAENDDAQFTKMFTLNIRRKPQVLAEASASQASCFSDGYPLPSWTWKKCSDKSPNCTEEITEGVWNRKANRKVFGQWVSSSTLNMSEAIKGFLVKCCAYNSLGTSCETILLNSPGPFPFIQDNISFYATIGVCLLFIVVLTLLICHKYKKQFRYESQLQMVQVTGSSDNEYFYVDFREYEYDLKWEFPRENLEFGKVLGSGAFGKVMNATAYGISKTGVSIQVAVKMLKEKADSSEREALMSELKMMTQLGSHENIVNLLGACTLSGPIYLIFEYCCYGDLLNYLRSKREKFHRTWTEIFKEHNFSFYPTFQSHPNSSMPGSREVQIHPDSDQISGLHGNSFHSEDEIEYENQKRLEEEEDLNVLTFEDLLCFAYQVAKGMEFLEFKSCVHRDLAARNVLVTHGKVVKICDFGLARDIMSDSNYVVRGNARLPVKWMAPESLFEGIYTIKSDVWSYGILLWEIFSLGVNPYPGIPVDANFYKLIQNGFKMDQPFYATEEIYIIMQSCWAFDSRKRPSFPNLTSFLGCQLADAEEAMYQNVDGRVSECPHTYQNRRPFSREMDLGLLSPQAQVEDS


Assays:
[1] = target: T1, human FLT3 on AML5 cells; test: cell-based or functional assay
[2] = target: T2, recombinant human C1q protein (Fitzgerald) (human, UniProt P02745 23-245; P02746 28-253; P02747 29-245, limits assumed); test: ELISA; test protein immobilised in serial dilution, recombinant human C1q added, anti-C1q-HRP
T2 construct: also called human recombinant complement protein, C1q
T2 sequence (P02745 23-245 limits assumed, chain 1 of 3): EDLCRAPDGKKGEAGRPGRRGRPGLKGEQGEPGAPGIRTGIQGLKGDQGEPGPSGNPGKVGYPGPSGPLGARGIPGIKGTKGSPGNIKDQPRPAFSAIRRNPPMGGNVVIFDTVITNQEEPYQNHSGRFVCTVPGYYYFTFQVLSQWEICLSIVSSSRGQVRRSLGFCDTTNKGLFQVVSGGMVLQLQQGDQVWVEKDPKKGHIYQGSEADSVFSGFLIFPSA
T2 sequence (P02746 28-253 limits assumed, chain 2 of 3): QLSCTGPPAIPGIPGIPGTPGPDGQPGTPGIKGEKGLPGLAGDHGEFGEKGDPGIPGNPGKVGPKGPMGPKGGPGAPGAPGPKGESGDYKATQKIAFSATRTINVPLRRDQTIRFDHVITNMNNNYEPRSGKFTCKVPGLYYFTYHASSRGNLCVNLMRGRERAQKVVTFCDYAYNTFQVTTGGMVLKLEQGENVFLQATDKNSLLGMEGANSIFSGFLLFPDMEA
T2 sequence (P02747 29-245 limits assumed, chain 3 of 3): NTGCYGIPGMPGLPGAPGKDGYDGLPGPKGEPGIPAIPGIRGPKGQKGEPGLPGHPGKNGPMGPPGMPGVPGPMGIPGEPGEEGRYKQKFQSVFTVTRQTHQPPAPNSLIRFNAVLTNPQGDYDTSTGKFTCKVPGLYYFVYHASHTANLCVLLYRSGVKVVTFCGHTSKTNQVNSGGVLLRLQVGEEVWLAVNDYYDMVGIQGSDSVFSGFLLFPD

[3] = target: T1, human FLT3 on AML5 cells; test: cell-based or functional assay; remark: listed apart in the source
[4] = target: T2, recombinant human C1q protein …; test: ELISA; test protein immobilised in serial dilution, recombinant human C1q added, anti-C1q-HRP; remark: listed apart in the source
[5] = target: T1, human FLT3 on AML5 cells; test: cell-based or functional assay; remark: listed apart in the source
[6] = target: T1, human FLT3 on AML5 cells; test: cell-based or functional assay; remark: listed apart in the source
[7] = target: T1, human FLT3 on AML5 cells; test: cell-based or functional assay; remark: listed apart in the source

Binder | EC50 (nM), AML5 Proliferation Assay [1] [nM] | EC50 (nM), AML5 Proliferation Assay [3] [nM] | EC50 (nM), Inducing Proliferation of AML5 Cells [5] [nM] | EC50 (nM), Inducing Proliferation of AML5 Cells [6] [nM] | EC50 (nM), Inducing Proliferation of AML5 Cells [7] [nM] | binding result [2] | binding result [4]
human FLT3-ligand (Δ5 amino acid) human hingeless IgG1 fusion protein (SEQ ID NO:2) (Fc fusion, also called FLT3L ECD (Δ C-term 5aa (PTAPQ))-hingeless hG1) TQDCSFQHSPISSDFAVKIRELSDYLLQDYPVTVASNLQDEELCGGLWRLVLAQRWMERLKTVAGSKMQGLLERVNTEIHFVTKCAFQPPPSCLRFVQTNISRLLQETSEQLVALKPWITRQNFSRCLELQCQPDSSTLPPPWSPRPLEATAGGPSVFLFPPKPKDTLMISRTPEVTCVVVDVSHEDPEVKFNWYVDGVEVHNAKTKPREEQYNSTYRVVSVLTVLHQDWLNGKEYKCKVSNKALPAPIEKTISKAKGQPREPQVYTLPPSREEMTKNQVSLTCLVKGFYPSDIAVEWESNGQPENNYKTTPPVLDSDGSFFLYSKLTVDKSRWQQGNVFSCSVMHEALHNHYTQKSLSLSPGK | 0.083 |  |  |  |  | no binding (tested: 94 nM (top of the titration)) | 
human FLT3-ligand (Δ5 amino acid) human IgG4 (S228P/F234A/L235A/M252Y/S254T/T256E) fusion protein (SEQ ID NO:14) (Fc fusion, also called FLT3L ECD (Δ C-term 5aa (PTAPQ))-hG4 (S228P/F234A/L235A/M252Y/S254T/T256E)) TQDCSFQHSPISSDFAVKIRELSDYLLQDYPVTVASNLQDEELCGGLWRLVLAQRWMERLKTVAGSKMQGLLERVNTEIHFVTKCAFQPPPSCLRFVQTNISRLLQETSEQLVALKPWITRQNFSRCLELQCQPDSSTLPPPWSPRPLEATAESKYGPPCPPCPAPEAAGGPSVFLFPPKPKDTLYITREPEVTCVVVDVSQEDPEVQFNWYVDGVEVHNAKTKPREEQFNSTYRVVSVLTVLHQDWLNGKEYKCKVSNKGLPSSIEKTISKAKGQPREPQVYTLPPSQEEMTKNQVSLTCLVKGFYPSDIAVEWESNGQPENNYKTTPPVLDSDGSFFLYSRLTVDKSRWQEGNVFSCSVMHEALHNHYTQKSLSLSLGK |  | 0.046 |  |  |  |  | no binding (tested: 94 nM (top of the titration))
human FLT3-ligand human hingeless IgG1 fusion protein (SEQ ID NO:1) (Fc fusion, Made in Expi293 or ExpiCHO; also called FLT3L ECD-hingeless hG1; hFLT3L ECD) TQDCSFQHSPISSDFAVKIRELSDYLLQDYPVTVASNLQDEELCGGLWRLVLAQRWMERLKTVAGSKMQGLLERVNTEIHFVTKCAFQPPPSCLRFVQTNISRLLQETSEQLVALKPWITRQNFSRCLELQCQPDSSTLPPPWSPRPLEATAPTAPQGGPSVFLFPPKPKDTLMISRTPEVTCVVVDVSHEDPEVKFNWYVDGVEVHNAKTKPREEQYNSTYRVVSVLTVLHQDWLNGKEYKCKVSNKALPAPIEKTISKAKGQPREPQVYTLPPSREEMTKNQVSLTCLVKGFYPSDIAVEWESNGQPENNYKTTPPVLDSDGSFFLYSKLTVDKSRWQQGNVFSCSVMHEALHNHYTQKSLSLSPGK | 0.08 | 0.05 | 0.04 | 0.034 | 0.078 | no binding (tested: 94 nM (top of the titration)) | 
human FLT3-ligand (S128A/S151A) human hingeless IgG1 fusion protein (SEQ ID NO:5) (Fc fusion, also called Aglyco-FLT3L ECD (S128A/S151A) hingeless hG1) TQDCSFQHSPISSDFAVKIRELSDYLLQDYPVTVASNLQDEELCGGLWRLVLAQRWMERLKTVAGSKMQGLLERVNTEIHFVTKCAFQPPPSCLRFVQTNIARLLQETSEQLVALKPWITRQNFARCLELQCQPDSSTLPPPWSPRPLEATAPTAPQGGPSVFLFPPKPKDTLMISRTPEVTCVVVDVSHEDPEVKFNWYVDGVEVHNAKTKPREEQYNSTYRVVSVLTVLHQDWLNGKEYKCKVSNKALPAPIEKTISKAKGQPREPQVYTLPPSREEMTKNQVSLTCLVKGFYPSDIAVEWESNGQPENNYKTTPPVLDSDGSFFLYSKLTVDKSRWQQGNVFSCSVMHEALHNHYTQKSLSLSPGK | 0.078 |  |  |  |  | no binding (tested: 94 nM (top of the titration)) | 

Continued, in another order:

EC50 (nM), AML5 Proliferation Assay [1] [nM] | EC50 (nM), AML5 Proliferation Assay [3] [nM] | EC50 (nM), Inducing Proliferation of AML5 Cells [5] [nM] | EC50 (nM), Inducing Proliferation of AML5 Cells [6] [nM] | EC50 (nM), Inducing Proliferation of AML5 Cells [7] [nM] | Binder | binding result [2] | binding result [4]
0.071 |  |  |  |  | human FLT3-ligand (Δ10 amino acid) human hingeless IgG1 fusion protein (SEQ ID NO:7) (Fc fusion) TQDCSFQHSPISSDFAVKIRELSDYLLQDYPVTVASNLQDEELCGGLWRLVLAQRWMERLKTVAGSKMQGLLERVNTEIHFVTKCAFQPPPSCLRFVQTNISRLLQETSEQLVALKPWITRQNFSRCLELQCQPDSSTLPPPWSPRPGGPSVFLFPPKPKDTLMISRTPEVTCVVVDVSHEDPEVKFNWYVDGVEVHNAKTKPREEQYNSTYRVVSVLTVLHQDWLNGKEYKCKVSNKALPAPIEKTISKAKGQPREPQVYTLPPSREEMTKNQVSLTCLVKGFYPSDIAVEWESNGQPENNYKTTPPVLDSDGSFFLYSKLTVDKSRWQQGNVFSCSVMHEALHNHYTQKSLSLSPGK | no binding (tested: 94 nM (top of the titration)) | 
 | 0.037 |  |  |  | human FLT3-ligand human hingeless IgG1 (M252Y/S254T/T256E) fusion protein (SEQ ID NO:9) (Fc fusion, also called FLT3L ECD-hingeless hG1 (M252Y/S254T/T256E)) TQDCSFQHSPISSDFAVKIRELSDYLLQDYPVTVASNLQDEELCGGLWRLVLAQRWMERLKTVAGSKMQGLLERVNTEIHFVTKCAFQPPPSCLRFVQTNISRLLQETSEQLVALKPWITRQNFSRCLELQCQPDSSTLPPPWSPRPLEATAPTAPQGGPSVFLFPPKPKDTLYITREPEVTCVVVDVSHEDPEVKFNWYVDGVEVHNAKTKPREEQYNSTYRVVSVLTVLHQDWLNGKEYKCKVSNKALPAPIEKTISKAKGQPREPQVYTLPPSREEMTKNQVSLTCLVKGFYPSDIAVEWESNGQPENNYKTTPPVLDSDGSFFLYSKLTVDKSRWQQGNVFSCSVMHEALHNHYTQKSLSLSPGK |  | no binding (tested: 94 nM (top of the titration))
